Results taken from patent US20240400638A1, “COMBINATION OF RELAXIN AND VASOPRESSIN ANALOGUES FOR TREATMENT OF RENAL DISORDERS OR CONDITIONS” (River 2 Renal Corp., priority 2021, published 2024).
Numbered stars: 1 amine (or outer) side, 2 acyl side, 3 side chain; on linkers, the order of the positions; unused ones are H or OH. Square brackets hold non-standard residues; d marks the D form. Side chains are listed from the residue outwards. * marks the point of attachment. TTDS = 4-[3-[2-[2-(3-aminopropoxy)ethoxy]ethoxy]propylamino]-4-oxo-butanoyl; γGlu = O=C(O)[C@H](CCC(=O)[*:2])N[*:1]; Stearoyl = CCCCCCCCCCCCCCCCCC(=O)*; Palmitoyl = CCCCCCCCCCCCCCCC(=O)*; αMeK = C[C@](N)(CCCCN)C(=O)O; hLys = NCCCCC[C@H](N)C(=O)O; AEEA = NCCOCCOCC(=O)O; Aib = CC(C)(N)C(=O)O

T1: human RXFP1 (human, UniProt Q9HBX9 1-757)
T1 sequence (looked up): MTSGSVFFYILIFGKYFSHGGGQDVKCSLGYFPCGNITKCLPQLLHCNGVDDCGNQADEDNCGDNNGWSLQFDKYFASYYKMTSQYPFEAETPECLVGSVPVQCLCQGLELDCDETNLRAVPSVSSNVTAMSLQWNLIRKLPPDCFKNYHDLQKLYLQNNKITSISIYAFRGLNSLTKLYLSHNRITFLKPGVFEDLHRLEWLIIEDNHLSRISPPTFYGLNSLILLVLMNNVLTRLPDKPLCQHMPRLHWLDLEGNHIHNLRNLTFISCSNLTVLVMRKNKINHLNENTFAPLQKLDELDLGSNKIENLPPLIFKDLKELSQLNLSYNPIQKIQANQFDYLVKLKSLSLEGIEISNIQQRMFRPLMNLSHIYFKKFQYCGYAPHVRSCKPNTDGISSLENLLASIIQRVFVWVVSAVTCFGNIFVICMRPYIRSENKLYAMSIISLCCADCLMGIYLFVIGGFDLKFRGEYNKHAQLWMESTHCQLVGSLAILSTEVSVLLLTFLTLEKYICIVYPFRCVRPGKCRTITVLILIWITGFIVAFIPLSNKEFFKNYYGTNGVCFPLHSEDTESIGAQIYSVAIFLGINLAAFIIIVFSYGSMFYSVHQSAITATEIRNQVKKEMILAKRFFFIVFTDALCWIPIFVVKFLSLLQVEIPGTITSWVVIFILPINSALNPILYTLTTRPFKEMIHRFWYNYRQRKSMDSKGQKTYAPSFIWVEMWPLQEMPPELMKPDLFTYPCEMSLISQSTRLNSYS

B1: Relaxin peptide analogue of SEQ ID NO: 21 (peptide)
peptide: Ac-LEGREKVRAK(Ac)I[Aib][Aib]EGK([AEEA-AEEA-AEEA-AEEA-γGlu-γGlu-γGlu-Stearoyl])STWS[Aib]RKK(Ac)-NH2
SMILES: CCCCCCCCCCCCCCCCCC(=O)N[C@@H](CCC(=O)N[C@@H](CCC(=O)N[C@@H](CCC(=O)NCCOCCOCC(=O)NCCOCCOCC(=O)NCCOCCOCC(=O)NCCOCCOCC(=O)NCCCC[C@H](NC(=O)CNC(=O)[C@H](CCC(=O)O)NC(=O)C(C)(C)NC(=O)C(C)(C)NC(=O)[C@@H](NC(=O)[C@H](CCCCNC(C)=O)NC(=O)[C@H](C)NC(=O)[C@H](CCCNC(=N)N)NC(=O)[C@@H](NC(=O)[C@H](CCCCN)NC(=O)[C@H](CCC(=O)O)NC(=O)[C@H](CCCNC(=N)N)NC(=O)CNC(=O)[C@H](CCC(=O)O)NC(=O)[C@H](CC(C)C)NC(C)=O)C(C)C)[C@@H](C)CC)C(=O)N[C@@H](CO)C(=O)N[C@H](C(=O)N[C@@H](Cc1c[nH]c2ccccc12)C(=O)N[C@@H](CO)C(=O)NC(C)(C)C(=O)N[C@@H](CCCNC(=N)N)C(=O)N[C@@H](CCCCN)C(=O)N[C@@H](CCCCNC(C)=O)C(N)=O)[C@@H](C)O)C(=O)O)C(=O)O)C(=O)O
B2: Relaxin peptide analogue of SEQ ID NO: 35 (peptide)
peptide: Ac-LEGREKVRAK(Ac)I[Aib][Aib]EGK([TTDS-TTDS-TTDS-γGlu-γGlu-γGlu-Palmitoyl])STW[Aib]KRAK(Ac)-NH2
B3: Relaxin peptide analogue of SEQ ID NO: 30 (peptide)
peptide: Ac-LEGREKVRAK(Ac)I[Aib][Aib]EGK([TTDS-TTDS-TTDS-γGlu-γGlu-γGlu-Stearoyl])STWS[αMeK]RAK(Ac)-NH2
B4: Relaxin peptide analogue of SEQ ID NO: 28 (peptide)
peptide: Ac-LEGRE[hLys]VRAK(Ac)I[Aib][Aib]EGK([TTDS-TTDS-TTDS-γGlu-γGlu-γGlu-Palmitoyl])STFS[αMeK]RAK(Ac)-NH2
B5: Relaxin peptide analogue of SEQ ID NO: 39 (peptide)
peptide: Ac-LEGREFVRAK(Ac)I[Aib][Aib]EGK([TTDS-TTDS-TTDS-γGlu-γGlu-γGlu-Palmitoyl])STWS[Aib]RRK(Ac)-NH2
B6: Relaxin peptide analogue of SEQ ID NO: 20 (peptide)
peptide: Ac-LEGREKVRAK(Ac)I[Aib][Aib]EGK([TTDS-TTDS-TTDS-γGlu-γGlu-γGlu-Stearoyl])STWS[Aib]RKK(Ac)-NH2
B7: Relaxin peptide analogue of SEQ ID NO: 26 (peptide)
peptide: Ac-LEGREKVRAK(Ac)I[Aib][Aib]EGK([AEEA-AEEA-AEEA-AEEA-γGlu-γGlu-γGlu-Stearoyl])STFS[αMeK]RAK(Ac)-NH2
SMILES: CCCCCCCCCCCCCCCCCC(=O)N[C@@H](CCC(=O)N[C@@H](CCC(=O)N[C@@H](CCC(=O)NCCOCCOCC(=O)NCCOCCOCC(=O)NCCOCCOCC(=O)NCCOCCOCC(=O)NCCCC[C@H](NC(=O)CNC(=O)[C@H](CCC(=O)O)NC(=O)C(C)(C)NC(=O)C(C)(C)NC(=O)[C@@H](NC(=O)[C@H](CCCCNC(C)=O)NC(=O)[C@H](C)NC(=O)[C@H](CCCNC(=N)N)NC(=O)[C@@H](NC(=O)[C@H](CCCCN)NC(=O)[C@H](CCC(=O)O)NC(=O)[C@H](CCCNC(=N)N)NC(=O)CNC(=O)[C@H](CCC(=O)O)NC(=O)[C@H](CC(C)C)NC(C)=O)C(C)C)[C@@H](C)CC)C(=O)N[C@@H](CO)C(=O)N[C@H](C(=O)N[C@@H](Cc1ccccc1)C(=O)N[C@@H](CO)C(=O)N[C@@](C)(CCCCN)C(=O)N[C@@H](CCCNC(=N)N)C(=O)N[C@@H](C)C(=O)N[C@@H](CCCCNC(C)=O)C(N)=O)[C@@H](C)O)C(=O)O)C(=O)O)C(=O)O
B8: Relaxin peptide analogue of SEQ ID NO: 25 (peptide)
peptide: Ac-LEGREQVRAK(Ac)I[Aib][Aib]EGK([TTDS-TTDS-TTDS-γGlu-γGlu-γGlu-Palmitoyl])STFS[αMeK]RAK(Ac)-NH2
B9: Relaxin peptide analogue of SEQ ID NO: 32 (peptide)
peptide: LEGREKVRAKIXXEGKSTFSKRAK
modifications: Ac-L-E-G-R-E-K-V-R-A-K(Ac)-I-Aib-Aib-E-G-K(PEG2DGA-PEG2DGA-PEG2DGA-gE-gE-gE-Stea)-S-T-F-S-Mly-R-A-K(Ac)-NH2
B10: Relaxin peptide analogue of SEQ ID NO: 22 (peptide)
peptide: LEGREKVRAKIXXEGKSTFSKRAK
modifications: Ac-L-E-G-R-E-K-V-R-A-K(Ac)-I-Aib-Aib-E-G-K(PEG2DGA-PEG2DGA-PEG2DGA-gE-gE-gE-Palm)-S-T-F-S-Mly-R-A-K(Ac)-NH2
B11: Relaxin peptide analogue of SEQ ID NO: 37 (peptide)
peptide: Ac-LEGRELVRAK(Ac)I[Aib][Aib]EGK([TTDS-TTDS-TTDS-γGlu-γGlu-γGlu-Palmitoyl])STWS[Aib]RRK(Ac)-NH2
B12: Relaxin peptide analogue of SEQ ID NO: 23 (peptide)
peptide: Ac-LEGRELVRAK(Ac)I[Aib][Aib]EGK([TTDS-TTDS-TTDS-γGlu-γGlu-γGlu-Palmitoyl])STFS[αMeK]RAK(Ac)-NH2
B13: Relaxin peptide analogue of SEQ ID NO: 27 (peptide)
peptide: Ac-LEGRERVRAK(Ac)I[Aib][Aib]EGK([TTDS-TTDS-TTDS-γGlu-γGlu-γGlu-Palmitoyl])STFS[αMeK]RAK(Ac)-NH2
B14: Relaxin peptide analogue of SEQ ID NO: 29 (peptide)
peptide: Ac-LEGREKVR[Aib]K(Ac)I[Aib][Aib]EGK([TTDS-TTDS-TTDS-γGlu-γGlu-γGlu-Palmitoyl])STFS[αMeK]RAK(Ac)-NH2
B15: Relaxin peptide analogue of SEQ ID NO: 18 (peptide)
peptide: Ac-LEGREKVRAK(Ac)I[Aib][Aib]EGK([TTDS-TTDS-γGlu-γGlu-γGlu-Palmitoyl])STWS[dK]RKK(Ac)-NH2
B16: Relaxin peptide analogue of SEQ ID NO: 31 (peptide)
peptide: Ac-LEGRERVRAK(Ac)I[Aib][Aib]EGK([TTDS-TTDS-TTDS-γGlu-γGlu-γGlu-Palmitoyl])STWS[Aib]RRK(Ac)-NH2
B17: Relaxin peptide analogue of SEQ ID NO: 19 (peptide)
peptide: Ac-LEGREKVRAK(Ac)I[Aib][Aib]EGK([AEEA-AEEA-AEEA-γGlu-γGlu-γGlu-Palmitoyl])STWS[Aib]RKK(Ac)-NH2
SMILES: CCCCCCCCCCCCCCCC(=O)N[C@@H](CCC(=O)N[C@@H](CCC(=O)N[C@@H](CCC(=O)NCCOCCOCC(=O)NCCOCCOCC(=O)NCCOCCOCC(=O)NCCCC[C@H](NC(=O)CNC(=O)[C@H](CCC(=O)O)NC(=O)C(C)(C)NC(=O)C(C)(C)NC(=O)[C@@H](NC(=O)[C@H](CCCCNC(C)=O)NC(=O)[C@H](C)NC(=O)[C@H](CCCNC(=N)N)NC(=O)[C@@H](NC(=O)[C@H](CCCCN)NC(=O)[C@H](CCC(=O)O)NC(=O)[C@H](CCCNC(=N)N)NC(=O)CNC(=O)[C@H](CCC(=O)O)NC(=O)[C@H](CC(C)C)NC(C)=O)C(C)C)[C@@H](C)CC)C(=O)N[C@@H](CO)C(=O)N[C@H](C(=O)N[C@@H](Cc1c[nH]c2ccccc12)C(=O)N[C@@H](CO)C(=O)NC(C)(C)C(=O)N[C@@H](CCCNC(=N)N)C(=O)N[C@@H](CCCCN)C(=O)N[C@@H](CCCCNC(C)=O)C(N)=O)[C@@H](C)O)C(=O)O)C(=O)O)C(=O)O
B18: Relaxin peptide analogue of SEQ ID NO: 36 (peptide)
peptide: Ac-LEGREKVRAK(Ac)I[Aib][Aib]EGK([TTDS-TTDS-TTDS-γGlu-γGlu-γGlu-Palmitoyl])STFS[dK]RAK(Ac)-NH2
B19: Relaxin peptide analogue of SEQ ID NO: 34 (peptide)
peptide: Ac-LEGREKVRAK(Ac)I[Aib][Aib]EGK([TTDS-TTDS-γGlu-γGlu-γGlu-Stearoyl])STFS[αMeK]RAK(Ac)-NH2
B20: Relaxin peptide analogue of SEQ ID NO: 24 (peptide)
peptide: Ac-LEGREFVRAK(Ac)I[Aib][Aib]EGK([TTDS-TTDS-TTDS-γGlu-γGlu-γGlu-Palmitoyl])STFS[αMeK]RAK(Ac)-NH2
B21: Relaxin peptide analogue of SEQ ID NO: 4 (peptide)
peptide: Ac-LEGREKVRAK(Ac)I[Aib][Aib]EGK([TTDS-TTDS-γGlu-γGlu-γGlu-Palmitoyl])STWS[Aib]RKK(Ac)-NH2
B22: Relaxin peptide analogue of SEQ ID NO: 3 (peptide)
peptide: Ac-LEGREKVRAK(Ac)I[Aib][Aib]EGK([TTDS-TTDS-TTDS-γGlu-γGlu-γGlu-Palmitoyl])STFS[αMeK]RAK(Ac)-NH2

molecular target: T1, human RXFP1; assay: cell-based or functional assay

EC50 (nM), OVCAR 5 cells (cAMP) [nM]	EMax, OVCAR 5 cells (cAMP) [%]	Binder
0.65	93	B1
2.33	91	B2
0.21	89	B3
0.62	88	B4
8.7	93	B5
0.15	96	B6
0.43	96	B7
28.7	100	B8
0.1	97	B9
1	92	B10
5.6	98	B11
11.1	92	B12
1.8	98	B13
1.6	88	B14
1.54	92	B15
0.19	94	B16
11.5	94	B17
3.6	93	B18
0.14	90	B19
36.4	100	B20
1.5	89	B21
0.34	97	B22
